In IntAct's records for PubMed 17911252:

B1: N-chimaerin (Homo sapiens), P15882-1 (parent)
chain: MALTLFDTDEYRPPVWKSYLYQLQQEAPHPRRITCTCEVENRPKYYGREFHGMISREAADQLLIVAEGSYLIRESQRQPGTYTLALRFGSQTRNFRLYYDGKHFVGEKRFESIHDLVTDGLITLYIETKAAEYIAKMTINPIYEHVGYTTLNREPAYKKHMPVLKETHDERDSTGQDGVSEKRLTSLVRRATLKENEQIPKYEKIHNFKVHTFRGPHWCEYCANFMWGLIAQGVKCADCGLNVHKQCSKMVPNDCKPDLKHVKKVYSCDLTTLVKAHTTKRPMVVDMCIREIESRGLNSEGLYRVSGFSDLIEDVKMAFDRDGEKADISVNMYEDINIITGALKLYFRDLPIPLITYDAYPKFIESAKIMDPDEQLETLHEALKLLPPAHCETLRYLMAHLKRVTLHEKENLMNAENLGIVFGPTLMRSPELDAMAALNDIRYQRLVVELLIKNEDILF

Variants of: B1
Conditions: with epha4_mouse Epha4, Q03137
Chain of epha4_mouse Epha4, Q03137 (Q03137 whole entry): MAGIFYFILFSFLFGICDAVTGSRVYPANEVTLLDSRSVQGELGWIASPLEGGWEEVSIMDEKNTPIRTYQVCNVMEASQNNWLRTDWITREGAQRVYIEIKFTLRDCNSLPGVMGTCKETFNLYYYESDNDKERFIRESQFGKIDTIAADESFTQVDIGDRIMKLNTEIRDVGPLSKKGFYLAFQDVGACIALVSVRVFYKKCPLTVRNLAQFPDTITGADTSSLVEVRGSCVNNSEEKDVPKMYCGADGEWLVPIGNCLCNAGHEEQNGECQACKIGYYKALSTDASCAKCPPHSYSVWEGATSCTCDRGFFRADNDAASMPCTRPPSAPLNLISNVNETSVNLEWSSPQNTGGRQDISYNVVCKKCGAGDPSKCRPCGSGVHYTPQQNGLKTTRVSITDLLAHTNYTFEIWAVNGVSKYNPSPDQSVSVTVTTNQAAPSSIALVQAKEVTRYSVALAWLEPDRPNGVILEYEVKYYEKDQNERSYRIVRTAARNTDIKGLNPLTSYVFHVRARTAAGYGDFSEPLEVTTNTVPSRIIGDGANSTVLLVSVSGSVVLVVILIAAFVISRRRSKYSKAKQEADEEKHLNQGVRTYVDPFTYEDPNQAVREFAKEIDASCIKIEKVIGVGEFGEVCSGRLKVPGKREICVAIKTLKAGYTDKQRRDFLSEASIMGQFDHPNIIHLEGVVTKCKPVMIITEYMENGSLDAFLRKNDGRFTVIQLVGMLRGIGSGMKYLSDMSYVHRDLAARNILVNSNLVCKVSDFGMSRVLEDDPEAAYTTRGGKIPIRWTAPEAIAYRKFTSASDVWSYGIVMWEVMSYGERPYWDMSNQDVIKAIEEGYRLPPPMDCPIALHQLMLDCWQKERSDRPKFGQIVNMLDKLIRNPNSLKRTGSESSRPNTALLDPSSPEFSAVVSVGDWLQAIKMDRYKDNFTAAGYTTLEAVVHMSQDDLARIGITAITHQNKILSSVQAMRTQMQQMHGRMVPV

| effect of a mutation on the interaction | Variant |
| --- | --- |
| decreasing interaction strength | R56L |
